B1: Hammerhead Ribozyme (parent)
chain: ACCGGAUGUGCUUUCCGGUCUGAUGAGUCCGUGAGGACGAAACAG

Variants of: B1
Test: self-cleavage, relative activity (ratio to wild type); higher = more cleavage; co-transcriptional

Variant	self-cleavage
U9C C15U	0.863
U9C C16A	1.04
U9C C16G	0.626
U9C C16U	1.41
U9C C20A	0.363
U9C C20G	0.437
U9C C20U	0.504
U9C C29A	0.77
U9C C29G	0.601
U9C C29U	0.831
U9C C30A	0.902
U9C C30G	0.955
U9C C30U	0.709
U9C C38A	0.618
U9C C38G	0.805
U9C C38U	1.1
U9C C43A	0.314
U9C C43G	0.274
U9C C43U	0.38
U9C G10A	1.19
U9C G10C	1.07
U9C G10U	0.795
U9C G17A	0.754
U9C G17C	0.354

Variant	self-cleavage
U9C G17U	0.897
U9C G18A	0.627
U9C G18C	0.47
U9C G18U	0.738
U9C G22A	0.34
U9C G22C	0.266
U9C G22U	0.307
U9C G25A	0.312
U9C G25C	0.294
U9C G25U	0.309
U9C G27A	0.973
U9C G27C	0.774
U9C G27U	0.505
U9C G31A	1.39
U9C G31C	1
U9C G31U	0.948
U9C G33A	0.952
U9C G33C	1.18
U9C G33U	1.24
U9C G35A	0.814
U9C G35C	0.498
U9C G35U	0.713
U9C G36A	0.511
U9C G36C	0.82

Variant	self-cleavage
U9C G36U	0.683
U9C G39A	0.313
U9C G39C	0.434
U9C G39U	0.264
U9C G45A	0.78
U9C G45C	0.648
U9C G45U	0.591
U9C U12A	1.15
U9C U12C	0.982
U9C U12G	1.1
U9C U13A	1.18
U9C U13C	0.843
U9C U13G	0.946
U9C U14A	0.872
U9C U14C	0.518
U9C U14G	1.29
U9C U19A	0.286
U9C U19C	0.514
U9C U19G	0.525
U9C U21A	0.496
U9C U21C	0.718
U9C U21G	0.72
U9C U24A	1.29
U9C U24C	0.94

Variant	self-cleavage
U9C U24G	0.948
U9C U28A	0.717
U9C U28C	1.08
U9C U28G	0.808
U9C U32A	0.837
U9C U32C	1.49
U9C U32G	0.9
U9G	0.989
U9G A23C	0.448
U9G A23G	0.385
U9G A23U	0.366
U9G A26C	0.32
U9G A26G	0.345
U9G A26U	0.344
U9G A34C	0.579
U9G A34G	1.04
U9G A34U	0.631
U9G A37C	0.805
U9G A37G	0.983
U9G A37U	0.611
U9G A40C	0.423
U9G A40G	0.366
U9G A40U	0.304
U9G A41C	0.294

Variant	self-cleavage
U9G A41G	0.303
U9G A41U	0.306
U9G A42C	0.303
U9G A42G	0.323
U9G A42U	0.28
U9G A44C	0.39
U9G A44G	1.07
U9G A44U	0.388
U9G C11A	1.47
U9G C11G	1.17
U9G C11U	0.342
U9G C15A	0.758
U9G C15G	0.729
U9G C15U	0.842
U9G C16A	0.835
U9G C16G	0.456
U9G C16U	0.848
U9G C20A	0.331
U9G C20G	0.422
U9G C20U	0.468
U9G C29A	0.655
U9G C29G	0.534
U9G C29U	0.713
U9G C30A	0.677

Variant	self-cleavage
U9G C30G	0.898
U9G C30U	1.26
U9G C38A	0.671
U9G C38G	0.486
U9G C38U	0.876
U9G C43A	0.271
U9G C43G	0.455
U9G C43U	0.339
U9G G10A	0.891
U9G G10C	0.987
U9G G10U	1.05
U9G G17A	0.456
U9G G17C	0.32
U9G G17U	0.316
U9G G18A	0.393
U9G G18C	0.364
U9G G18U	0.4
U9G G22A	0.321
U9G G22C	0.399
U9G G22U	0.358
U9G G25A	0.205
U9G G25C	0.383
U9G G25U	0.242
U9G G27A	0.449

Variant	self-cleavage
U9G G27C	0.455
U9G G27U	0.329
U9G G31A	1.14
U9G G31C	0.754
U9G G31U	0.51
U9G G33A	0.988
U9G G33C	0.78
U9G G33U	0.788
U9G G35A	0.707
U9G G35C	0.562
U9G G35U	0.64
U9G G36A	0.57
U9G G36C	0.593
U9G G36U	0.569
U9G G39A	0.307
U9G G39C	0.33
U9G G39U	0.319
U9G G45A	0.426
U9G G45C	0.462
U9G G45U	0.454
U9G U12A	1.04
U9G U12C	1.57
U9G U12G	0.784
U9G U13A	1.93

Variant	self-cleavage
U9G U13C	1.04
U9G U13G	0.802
U9G U14A	0.916
U9G U14C	0.41
U9G U14G	0.991
U9G U19A	0.376
U9G U19C	0.329
U9G U19G	0.343
U9G U21A	0.405
U9G U21C	0.414
U9G U21G	0.406
U9G U24A	0.928
U9G U24C	0.919
U9G U24G	0.671
U9G U28A	0.833
U9G U28C	0.673
U9G U28G	0.729
U9G U32A	1.31
U9G U32C	1.21
U9G U32G	1.07
G10A	1.09
G10A A23C	0.375
G10A A23G	0.34
G10A A23U	0.33

Variant	self-cleavage
G10A A26C	0.666
G10A A26G	0.353
G10A A26U	0.925
G10A A34C	1.2
G10A A34G	0.836
G10A A34U	0.919
G10A A37C	1.19
G10A A37G	0.639
G10A A37U	0.921
G10A A40C	0.676
G10A A40G	0.346
G10A A40U	0.298
G10A A41C	0.306
G10A A41G	0.359
G10A A41U	0.386
G10A A42C	0.406
G10A A42G	0.288
G10A A42U	0.38
G10A A44C	0.517
G10A A44G	1.71
G10A A44U	0.741
G10A C11A	1.09
G10A C11G	1.35
G10A C11U	1.38

Variant	self-cleavage
G10A C15A	0.927
G10A C15G	0.899
G10A C15U	0.919
G10A C16A	1.4
G10A C16G	0.812
G10A C16U	0.971
G10A C20A	0.451
G10A C20G	0.303
G10A C20U	0.543
G10A C29A	0.654
G10A C29G	0.853
G10A C29U	1.17
G10A C30A	1.01
G10A C30G	0.783
G10A C30U	1.06
G10A C38A	0.814
G10A C38G	0.751
G10A C38U	1.33
G10A C43A	0.295
G10A C43G	0.406
G10A C43U	0.605
G10A G17A	0.81
G10A G17C	0.61
G10A G17U	0.986

Variant	self-cleavage
G10A G18A	0.943
G10A G18C	0.615
G10A G18U	1.13
G10A G22A	0.352
G10A G22C	0.32
G10A G22U	0.319
G10A G25A	0.365
G10A G25C	0.362
G10A G25U	0.345
G10A G27A	0.94
G10A G27C	0.701
G10A G27U	0.431
G10A G31A	1.08
G10A G31C	1.16
G10A G31U	0.938
G10A G33A	1.21
G10A G33C	0.959
G10A G33U	1.01
G10A G35A	0.853
G10A G35C	0.763
G10A G35U	0.925
G10A G36A	0.742
G10A G36C	0.843
G10A G36U	0.632

Variant	self-cleavage
G10A G39A	0.373
G10A G39C	0.45
G10A G39U	0.401
G10A G45A	0.9
G10A G45C	0.93
G10A G45U	0.767
G10A U12A	0.985
G10A U12C	1.38
G10A U12G	1.51
G10A U13A	1.72
G10A U13C	1.39
G10A U13G	0.956
G10A U14A	1.21
G10A U14C	0.97
G10A U14G	1.04
G10A U19A	0.347
G10A U19C	0.675
G10A U19G	0.464
G10A U21A	0.588
G10A U21C	0.815
G10A U21G	0.462
G10A U24A	1.12
G10A U24C	0.932
G10A U24G	0.875

Variant	self-cleavage
G10A U28A	1.12
G10A U28C	1.37
G10A U28G	1.15
G10A U32A	1.14
G10A U32C	1.52
G10A U32G	0.936
G10C	1.05
G10C A23C	0.538
G10C A23G	0.309
G10C A23U	0.447
G10C A26C	0.447
G10C A26G	0.304
G10C A26U	0.851
G10C A34C	0.424
G10C A34G	0.841
G10C A34U	0.934
G10C A37C	1.21
G10C A37G	0.958
G10C A37U	0.576
G10C A40C	0.457
G10C A40G	0.398
G10C A40U	0.28
G10C A41C	0.299
G10C A41G	0.392

Variant	self-cleavage
G10C A41U	0.358
G10C A42C	0.34
G10C A42G	0.278
G10C A42U	0.277
G10C A44C	0.61
G10C A44G	1.44
G10C A44U	0.57
G10C C11A	1.11
G10C C11G	1.17
G10C C11U	1.18
G10C C15A	0.591
G10C C15G	0.524
G10C C15U	1.01
G10C C16A	0.995
G10C C16G	0.522
G10C C16U	0.964
G10C C20A	0.336
G10C C20G	0.4
G10C C20U	0.487
G10C C29A	0.678
G10C C29G	0.638
G10C C29U	1.44

From the RNAGym collection of RNA variant scans (doi:10.7554/elife.80360)
